Our source for the Kd values is article PMC12079263.

By Kd is commonly meant the constant that tells how readily two partners part at equilibrium. Higher therefore signals a looser complex.

The test concerns the target Rab11 (1–173, Q70L) with 6 × His, bound to GTP-γ-S (UniProt P62491). Put plainly: SPR. On the technique in general: In SPR one partner is held on a chip, and binding of the other changes the refractive index at the surface.

In the case of “p14^1–69 protein (p14 FAST protein of reptilian reovirus, residues 1-69) reconstituted into bicelles (domain or fragment)”, the dissociation constant (Kd) came to 2130 nM.
